Where a chain is given by its changes, count along the chain named.
B1: IAPB57 (antibody, human IgG4 S228P, kappa, F234A L235A)
heavy: not shown
light: DIQLTQSPSFLSASVGDRVTITCRASQGISSYLAWYQQKPGKAPKLLIYAASTLQSGVPSRFSGSGSGTEFTLTISSLQPEDFATYYCQQVNSYPLTFGGGTKVEIKRTVAAPSVFIFPPSDEQLKSGTASVVCLLNNFYPREAKVQWKVDNALQSGNSQESVTEQDSKDSTYSLSSTLTLSKADYEKHKVYACEVTHQGLSSPVTKSFNRGEC
notes: IgG4-PAA; whole chains
B2: CD3B219 - CD3B219 Parental, IgG4 PAA (antibody)
heavy chain: EVQLVESGGGLVQPGGSLRLSCAASGFTFNTYAMNWVRQAPGKGLEWVARIRSKYNNYATYYAASVKGRFTISRDDSKNSLYLQMNSLKTEDTAVYYCARHGNFGNSYVSWFAYWGQGTLVTVSSASTKGPSVFPLAPCSRSTSESTAALGCLVKDYFPEPVTVSWNSGALTSGVHTFPAVLQSSGLYSLSSVVTVPSSSLGTKTYTCNVDHKPSNTKVDKRVESKYGPPCPPCPAPEAAGGPSVFLFPPKPKDTLMISRTPEVTCVVVDVSQEDPEVQFNWYVDGVEVHNAKTKPREEQFNSTYRVVSVLTVLHQDWLNGKEYKCKVSNKGLPSSIEKTISKAKGQPREPQVYTLPPSQEEMTKNQVSLTCLVKGFYPSDIAVEWESNGQPENNYKTTPPVLDSDGSFLLYSKLTVDKSRWQEGNVFSCSVMHEALHNHYTQKSLSLSLGK
light chain: QTVVTQEPSLTVSPGGTVTLTCRSSTGAVTTSNYANWVQQKPGQAPRGLIGGTNKRAPGTPARFSGSLLGGKAALTLSGVQPEDEAEYYCALWYSNLWVFGGGTKLTVLGQPKAAPSVTLFPPSSEELQANKATLVCLISDFYPGAVTVAWKADSSPVKAGVETTTPSKQSNNKYAASSYLSLTPEQWKSHRSYSCQVTHEGSTVEKTVAPTECS

Legend:
[1] = molecular target: T1, recombinant cyno IL1RAP ECD (cynomolgus monkey, UniProt P59822 21-367 (rhesus entry)); assay: recombinant protein
T1 construct: also called rcynoIL1RAP
T1 sequence: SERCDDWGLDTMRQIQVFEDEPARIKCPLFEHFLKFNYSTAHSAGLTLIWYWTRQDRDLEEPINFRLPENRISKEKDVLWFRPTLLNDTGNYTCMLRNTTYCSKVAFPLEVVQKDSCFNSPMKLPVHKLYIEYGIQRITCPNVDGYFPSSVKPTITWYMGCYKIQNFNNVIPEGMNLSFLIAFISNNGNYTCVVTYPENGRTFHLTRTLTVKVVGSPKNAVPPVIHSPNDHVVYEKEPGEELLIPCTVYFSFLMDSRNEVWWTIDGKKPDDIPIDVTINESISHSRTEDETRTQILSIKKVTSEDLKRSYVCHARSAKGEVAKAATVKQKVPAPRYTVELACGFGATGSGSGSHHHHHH

human FcRn = molecular target: T2, human FcRn (human, UniProt P55899 24-297; P61769 21-119, limits assumed); assay: AlphaScreen competition, human FcRn (n=1); displaced: biotinylated control mAb B21M WT IgG1 (m27); pH 6.0
T2 construct: GST-tagged
Text: (§1) Measurements were made using an AlphaScreen™ assay (Amplified Luminescent Proximity Homogeneous Assay (ALPHA), PerkinElmer, Wellesley, Mass.), a bead-based luminescent proximity assay. Laser excitation of a donor bead excites oxygen, which if sufficiently close to the acceptor bead generates a cascade of chemiluminescent events, ultimately leading to fluorescence emission at 520-620 nm.

human FcγRI = molecular target: T3, human FcγRI (human, UniProt P12314 16-292, limits assumed); assay: AlphaScreen competition, human FcγRI (n=1); displaced: biotinylated control mAb B21M hIgG1 AlaAla; pH 7.2
T3 construct: GST-tagged, on glutathione acceptor beads; also called FcγRT [sic]
Text: as §1

human FcγRIIb = molecular target: T4, human FcγRIIb (human, UniProt P31994 43-217, limits assumed); assay: AlphaScreen competition, human FcγRIIb (n=1); displaced: biotinylated control mAb B21M hIgG1 WT; pH 7.2
T4 construct: GST-tagged
T4 sequence (looked up): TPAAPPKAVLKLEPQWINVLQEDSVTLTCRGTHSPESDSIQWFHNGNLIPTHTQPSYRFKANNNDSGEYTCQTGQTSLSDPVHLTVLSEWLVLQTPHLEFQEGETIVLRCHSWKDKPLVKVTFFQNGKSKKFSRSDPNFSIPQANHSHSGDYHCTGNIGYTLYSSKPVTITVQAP
Text: as §1

[2] = molecular target: T5, recombinant human IL1RAP ECD (human, UniProt Q9NPH3 21-367); assay: SPR, summary
T5 construct: His-tagged; also called hIL1RAP-ECD; rhuIL1RAP
T5 sequence: T1 sequence with F183L, P273T, T326K

[3] = molecular target: T6, cyno IL1RAP ECD displayed on HEK-293F cells (pDisplay) (cynomolgus monkey, UniProt P59822 21-367 (rhesus entry)); assay: HEK-293F cells (MSD)
T6 sequence: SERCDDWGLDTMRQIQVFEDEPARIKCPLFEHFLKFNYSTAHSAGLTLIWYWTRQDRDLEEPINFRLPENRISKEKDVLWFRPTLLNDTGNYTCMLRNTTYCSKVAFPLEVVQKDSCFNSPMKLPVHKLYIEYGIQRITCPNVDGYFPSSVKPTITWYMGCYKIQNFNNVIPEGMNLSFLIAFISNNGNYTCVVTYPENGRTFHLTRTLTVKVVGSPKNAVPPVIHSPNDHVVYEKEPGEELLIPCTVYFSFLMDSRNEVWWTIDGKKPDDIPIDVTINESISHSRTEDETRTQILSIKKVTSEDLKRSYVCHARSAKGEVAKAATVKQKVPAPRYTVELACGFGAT

Binder | binding result [1] | IC50 (read off the curve) (human FcRn) | IC50 (read off the curve) (human FcγRI) | binding result (human FcγRIIb) | Kd [2] | binding result [3]
B1 | binds | ~200 nM | ~100 nM | binds | 0.16 nM | binds
B2 | – | ~200 nM | ~60 nM | binds | – | –

From patent publication US20190270826A1 (Janssen / Centocor, published 2019)
